Reference: US20110172391A1 (published 2011)

Legend:
precursor protein MINC = precursor protein MINC (Synechocystis sp. PCC6803); experiment: cell-based or functional assay
N-precursor protein MINH = N-precursor protein MINH (Synechocystis sp. PCC6803); experiment: cell-based or functional assay

B1: 8-aa Ic peptide (peptide)
peptide: GVFVHASG
fold increase of the N-cleavage rate constant with 10 mM DTT against the Ic peptide alone (precursor protein MINC): ~2 fold
fold increase of the N-cleavage rate constant with 100 mM DTT against the Ic peptide alone (precursor protein MINC): ~10 fold

B2: 6-aa Ic peptide (peptide)
peptide: GVFVHN
N-cleavage rate against the longer Ic peptide (with 10 mM or 100 mM DTT) (precursor protein MINC): ~2 fold slower

B3: synthetic peptide (ICF) (peptide)
peptide: GVFVHNSADYKDDDDKSGCLAGDTLITLAS
rate constant (kobs) of the trans-splicing reaction, pseudo-first order, 10-fold molar excess of ICF (N-precursor protein MINH): 6.9e-05 s⁻¹
